Test results reported in patent US20010041670A1, “Thrombospondin-binding region of histidine-rich glycoprotein and method of use” (priority 1999, published 2001).
“Also recorded” adds a separate entry of the source.

B1: HRGP: Histidine-rich glycoprotein, plasma protein purified from human plasma by lys-plasminogen affinity chromatography (protein)
chain: VSPTDCSAVEPEAEKALDLINKRRRDGYLFQLLRIADAHLDRVENTTVYYLVLDVQESDCSVLSRKYWNDCEPPDSRRPSEIVIGQCKVIATRHSHESQDLRVIDFNCTTSSVSSALANTKDSPVLIDFFEDTERYRKQANKALEKYKEENDDFASFRVDRIERVARVRGGEGTGYFVDFSVRNCPRHHFPRHPNVFGFCRADLFYDVEALDLESPKNLVINCEVFDPQEHENINGVPPHLGHPFHWGGHERSSTTKPPFKPHGSRDHHHPHKPHEHGPPPPPDERDHSHGPPLPQGPPPLLPMSCSSCQHATFGTNGAQRHSHNNNSSDLHPHKHHSHEQHPHGHHPHAHHPHEHDTHRQHPHGHHPHGHHPHGHHPHGHHPHGHHPHCHDFQDYGPCDPPPHNQGHCCHGHGPPPGHLRRRGPGKGPRPFHCRQIGSVYRLPPLRKGEVLPLPEANFPSFPLPHHKHPLKPDNQPFPQSVSESCPGKFKSGFPQVSMFFTHTFPK
B2: CD36 FP298-439: CD36-GST fusion protein which does not bind TSP-1 (protein)
chain: KAFASPVENPDNYCFCTEKIISKNCTSYGVLDISKCKEGRPVYISLPHFLYASPDVSEPIDGLNPNEEEHRTYLDIEPITGFTLQFAKRLQVNLLVKPSEKIQVLKNLKRNYIVPILWLNETGTIGDEKANMFRSQVTGKIN
modifications: left off: a dimerising Fc or GST

Key:
[1] = tested on: Human dermal microvascular EC (HMVEC); assay: Tube formation assay on Matrigel; assay type: cell-based
Experimental: Tube Formation Assay. Early passage (P2 or P3) HMVEC in 0.2% MVGS were grown on 150 μl of Matrigel (Becton Dickinson, Bedford, Mass., USA) at 3×10^4 cells per well of 48-well plates. Reagents were added and cells were incubated at 5% CO2, 37° C. for 24 hours then photographed. Images were scanned and number of branched structures was counted using Scion Image software (Frederick, Md., USA).
HRGP inhibits the anti-angiogenic effect of TSP-1 in vitro. Microvascular EC were grown on Matrigel under low serum concentrations (0.2%) in the presence of bFGF (2 ng/ml), conditions which are known to induce tube formation. […] The anti-angiogenic activity of TSP-1 was abolished by the addition of HRGP (15 nM), which restored the ability of the EC to form tubular structures. (c).

[2] = tested on: Human dermal microvascular EC (HMVEC); assay: Endothelial cell chemotaxis assay (modified Boyden chamber); assay type: cell-based
Experimental: Endothelial Cell (EC) chemotaxis assays were performed as described using a modified Boyden chamber with 8 μm gelatin-coated membranes (22). Briefly, confluent flasks of HMVEC were grown in 0.1% MVGS overnight and plated at 3×10^4 cells per well on a gelatinized porous membrane (Osmonics, Minnetonka, Minn., USA). Reagents were added to wells and cells were allowed to migrate at 5% CO2, 37° C. for 4 hours. Membranes were stained and the number of cells migrating was counted. Results were expressed as the percentage of maximum cells migrating towards bFGF (38-113 cells/10 high power fields) minus the number of cells migrating in the absence of bFGF (4-13cells/10 hpf).
HRGP inhibits the anti-chemotactic effect of TSP-1. Because the type I repeat also mediates the interaction of TSP-1 with HRGP, we studied the effect of HRGP on angiogenesis. EC migration towards bFGF was measured using a modified Boyden chamber with an 8 μm gelatin-coated membrane in the presence and absence of TSP-1 (2 nM) and increasing concentrations of HRGP (0-100 nM). Data from 3 separate experiments are expressed as a percentage of migration in the presence of bFGF alone. We measured migration of CD36-expressing microvascular EC towards bFGF. The addition of TSP-1 inhibited bFGF-induced migration of EC (approx. 30%±3% of control 100% value without added TSP-1). […]

[3] = tested on: C57B1/6 mice; assay: In vivo subcutaneous Matrigel plug assay
Experimental: In vivo subcutaneous Matrigel plug assays were performed as described (23). Briefly, 500 μl of Matrigel mixed with proteins or growth factors was injected subcutaneously near the abdominal midline of C57B1/6 mice. Gels were removed after 10 days, fixed in 1% paraformaldehyde, embedded in paraffin, sectioned, and stained with hematoxylin and eosin. Immunohistochemistry was performed on unstained sections using an anti-human von Willebrand factor (vWF) IgG (Dako, Glostrup, Denmark) or isotype-matched control (Sigma) and a biotin-streptavidin-peroxidase antibody and development system (Vector Laboratories, Burlingame, Calif.) as described (24) and counterstained with Mayer's hematoxylin (ImmunoGenex, San Ramon, Calif., USA). After scanning, the degree of angiogenesis was determined by counts of vWF-positive blood vessels using Scion Image. For breast tissue, frozen sections of freshly obtained human breast carcinoma were incubated with rabbit antibody to HRGP or CSVTCG or murine monoclonal antibody to TSP, or isotype-matched controls (Sigma), and developed as above. These studies were approved by the Institutional Animal Use Committee.
Matrigel mixed was injected subcutaneously into the midline of mice and resulting plugs were harvested after 10 days, fixed, and paraffin embedded, sectioned, stained with. hematoxylin and eosin, and photographed at 200× magnification. […]

[4] = tested on: wild type C57BL/6 mice; assay: In vivo corneal angiogenesis assay, wild type mice
Experimental: (§1) FIG. 3. HRGP abrogates the effect of endogenous TSP in the corneal angiogenesis assay. Pellets containing bFGF at various doses with and without HRGP (50 ng) were implanted into the corneas of wild type C57BL/6 (closed symbols) or CD 36 null mice (open symbols), and area of neovascularization was measured after five days. HRGP (--●--) augmented the dose-dependent effect of bFGF (—▪—) in the wild type mice (p=0.0004 by ANOVA). In CD36 null mice, there was an enhanced dose response to bFGF (—□—) (p=0.01), but no effect seen with the addition of HRGP (--◯--). Results represent mean±SE of>6 replicates.
(§2) In vivo corneal angiogenesis assays. Pellets composed of hydron (Hydro Med Sciences, Cranbury, N.J.) and sucralfate (Teva Pharmaceuticals, North Wales, Pa.) were mixed with proteins or growth factors, and were prepared and implanted into the comeas of C57B1/6 mice as described (38). After 5 days, eyes were viewed under a dissecting microscope and photographed with a Sony DKC-1000 digital camera. The area of neovascularization was calculated by measuring vessel length from limbus towards the pellet and number of clock hours of vascularization as described (39, 40). Studies were approved by the Institutional Animal Use Committee.
In a second type of in vivo experiment, hydron/sucralfate pellets containing bFGF, TSP-1, and/or HRGP were implanted in the corneas of C57B1/6 mice. […] Similar results were obtained when HRGP was added in a separate pellet from bFGF and TSP-1.
In fact, the dose response curve of bFGF in wild type mice in the presence of HRGP was similar to that seen with bFGF alone in the CD36 null mice. […] The resulting pellet was removed after 10 days, processed and stained for histologic examination and blood vessel counts. TSP-1 inhibited bFGF-induced blood vessel formation (14±8% of blood vessels/mm^2 seen with bFGF), and that HRGP inhibited the anti-angiogenic effect of TSP-1 (80±13%).

[5] = tested on: CD36 null mice; assay: In vivo corneal angiogenesis assay, CD36 null mice
Experimental: as §1, §2
In fact, the dose response curve of bFGF in wild type mice in the presence of HRGP was similar to that seen with bFGF alone in the CD36 null mice. […]

[6] = biological target: TSP-1 (Homo sapiens, UniProt P07996); conditions: saturable, reversible binding; read-out: affinity of HRGP binding to TSP-1; cited from earlier work
TSP-1, sequence (P07996 19-1170): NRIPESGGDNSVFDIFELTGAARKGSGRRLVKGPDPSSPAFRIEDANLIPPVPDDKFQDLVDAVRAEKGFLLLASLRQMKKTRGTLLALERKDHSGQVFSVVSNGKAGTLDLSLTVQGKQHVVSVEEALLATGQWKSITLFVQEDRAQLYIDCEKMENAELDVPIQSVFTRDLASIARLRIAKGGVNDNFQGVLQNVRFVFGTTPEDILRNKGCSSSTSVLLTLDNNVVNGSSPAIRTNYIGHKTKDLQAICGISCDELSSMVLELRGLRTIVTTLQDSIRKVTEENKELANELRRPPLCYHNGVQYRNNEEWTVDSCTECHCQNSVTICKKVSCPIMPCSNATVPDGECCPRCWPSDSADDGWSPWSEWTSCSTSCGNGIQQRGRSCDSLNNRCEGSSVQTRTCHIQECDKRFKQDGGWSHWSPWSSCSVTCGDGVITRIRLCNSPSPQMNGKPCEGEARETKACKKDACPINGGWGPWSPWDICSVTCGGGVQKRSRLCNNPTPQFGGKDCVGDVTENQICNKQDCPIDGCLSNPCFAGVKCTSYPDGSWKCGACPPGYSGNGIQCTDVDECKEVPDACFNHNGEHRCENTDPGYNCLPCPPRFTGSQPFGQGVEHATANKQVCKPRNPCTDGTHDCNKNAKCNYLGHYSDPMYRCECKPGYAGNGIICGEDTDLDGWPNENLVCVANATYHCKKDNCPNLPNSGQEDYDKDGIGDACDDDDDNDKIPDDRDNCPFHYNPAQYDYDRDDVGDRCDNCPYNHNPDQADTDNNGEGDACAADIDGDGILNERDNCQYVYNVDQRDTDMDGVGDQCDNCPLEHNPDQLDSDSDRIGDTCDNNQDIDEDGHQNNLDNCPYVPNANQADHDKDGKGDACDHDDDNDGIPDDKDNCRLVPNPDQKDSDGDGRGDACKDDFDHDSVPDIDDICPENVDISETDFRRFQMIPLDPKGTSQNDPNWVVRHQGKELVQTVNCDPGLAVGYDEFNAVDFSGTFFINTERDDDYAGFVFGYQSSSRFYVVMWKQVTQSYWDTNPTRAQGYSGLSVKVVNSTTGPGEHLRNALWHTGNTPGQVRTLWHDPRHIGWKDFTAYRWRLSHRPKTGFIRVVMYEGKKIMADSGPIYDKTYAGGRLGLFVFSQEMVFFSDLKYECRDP

[7] = biological target: T1, 125I-TSP-1 binding to HRGP (Homo sapiens, UniProt P07996); assay: Solid phase binding assay, competition with CD36 fusion proteins; conditions: increasing concentrations of fusion protein
T1 construct: TSP-1 was purified from human platelet releasate; from tissue; host or cells: TSP-1 from human platelet releasate; HRGP from human plasma
T1 sequence (P07996 19-1170): as above
Experimental: Solid phase binding assays were performed as described (18). Briefly, HRGP in carbonate buffer was immobilized on 96-well strips (Immulon-4 Remove-a-well, Dynatech Laboratories Inc., Burlington, Mass., USA) overnight at 4° C. After blocking with 1% BSA, ^125I-TSP-1 was incubated in the presence of varying concentrations of CD36-FP in triplicate, and bound radioactivity was quantified on a gamma counter. Non-specific binding was determined by carrying out binding in the presence of excess unlabeled ligand.
TSP-1 binding to HRGP: competition with CD36.

Row | inhibition of 125I-TSP-1 binding to immobilized HRGP [7] | Molecule | effect on the anti-angiogenic activity of TSP-1 (tube formation) ([1]; HRGP 15 nM added to TSP-1 2 nM + bFGF 2 ng/ml) | induction of tube formation ([1]; agent alone, low serum, Matrigel) | EC migration towards bFGF, percentage of control ([2]; TSP-1 2 nM plus 10 nM HRGP) | EC migration towards bFGF, percentage of control ([2]; TSP-1 2 nM plus 100 nM HRGP) | blood vessels/mm^2, % of that seen with bFGF ([3]; HRGP added to bFGF + TSP-1 in Matrigel, 10 days) | angiogenesis in Matrigel plug (histology) ([3]; plugs harvested after 10 days, representative images of 4 experiments) | effect on angiogenic activity (dose response) of bFGF ([4]; HRGP 50 ng, bFGF 2.5 to 10 ng, wild type mice, p=0.0004 by ANOVA) | Area of Neovascularization (mm^2) ± SE ([4]; Wild type mouse, corneal pellet, 5 days) | induction of corneal angiogenesis by agent alone ([4]; pellet without bFGF) | Area of Neovascularization (mm^2) ± SE ([5]; CD36 −/− mouse, corneal pellet, 5 days) | effect on sensitivity to low concentrations of bFGF ([5]; HRGP 50 ng, CD36 null mice) | Kd [6]
1 |  | B1 | abolished | did not directly induce tube formation | approx. 30%±15% | approx. 75%±15% | 80±13% | had no effect | significantly increased; also recorded: augmented | 0 ± 0 mm^2 | did not induce angiogenesis | 0.02 ± 0.004 mm^2 | did not effect sensitivity; also recorded: no effect | 7 nM
2 | had no effect | B2 |  |  |  |  |  |  |  |  |  |  |  | 
